From IntAct's records for PubMed 30190310

B1: Kelch-like protein 12 (Homo sapiens), Q53G59 (parent)
chain: MGGIMAPKDIMTNTHAKSILNSMNSLRKSNTLCDVTLRVEQKDFPAHRIVLAACSDYFCAMFTSELSEKGKPYVDIQGLTASTMEILLDFVYTETVHVTVENVQELLPAACLLQLKGVKQACCEFLESQLDPSNCLGIRDFAETHNCVDLMQAAEVFSQKHFPEVVQHEEFILLSQGEVEKLIKCDEIQVDSEEPVFEAVINWVKHAKKEREESLPNLLQYVRMPLLTPRYITDVIDAEPFIRCSLQCRDLVDEAKKFHLRPELRSQMQGPRTRARLGANEVLLVVGGFGSQQSPIDVVEKYDPKTQEWSFLPSITRKRRYVASVSLHDRIYVIGGYDGRSRLSSVECLDYTADEDGVWYSVAPMNVRRGLAGATTLGDMIYVSGGFDGSRRHTSMERYDPNIDQWSMLGDMQTAREGAGLVVASGVIYCLGGYDGLNILNSVEKYDPHTGHWTNVTPMATKRSGAGVALLNDHIYVVGGFDGTAHLSSVEAYNIRTDSWTTVTSMTTPRCYVGATVLRGRLYAIAGYDGNSLLSSIECYDPIIDSWEVVTSMGTQRCDAGVCVLREK
B2: Kelch repeat and BTB domain-containing protein 8 (Homo sapiens), Q8NFY9 (parent)
chain: MAASADLSKSSPTPNGIPSSDPASDAMDPFHACSILKQLKTMYDEGQLTDIVVEVDHGKTFSCHRNVLAAISPYFRSMFTSGLTESTQKEVRIVGVEAESMDLVLNYAYTSRVILTEANVQALFTAASIFQIPSIQDQCAKYMISHLDPQNSIGVFIFADHYGHQELGDRSKEYIRKKFLCVTKEQEFLQLTKDQLISILDSDDLNVDREEHVYESIIRWFEHEQNEREVHLPEIFAKCIRFPLMEDTFIEKIPPQFAQAIAKSCVEKGPSNTNGCTQRLGMTASEMIICFDAAHKHSGKKQTVPCLDIVTGRVFKLCKPPNDLREVGILVSPDNDIYIAGGYRPSSSEVSIDHKAENDFWMYDHSTNRWLSKPSLLRARIGCKLVYCCGKMYAIGGRVYEGDGRNSLKSVECYDSRENCWTTVCAMPVAMEFHNAVEYKEKIYVLQGEFFLFYEPQKDYWGFLTPMTVPRIQGLAAVYKDSIYYIAGTCGNHQRMFTVEAYDIELNKWTRKKDFPCDQSINPYLKLVLFQNKLHLFVRATQVTVEEHVFRTSRKNSLYQYDDIADQWMKVYETPDRLWDLGRHFECAVAKLYPQCLQKVL

Variants of: B1
Conditions: with fxl17_human FBXL17, Q9UF56
Target sequence in this assay (Q9UF56 whole entry): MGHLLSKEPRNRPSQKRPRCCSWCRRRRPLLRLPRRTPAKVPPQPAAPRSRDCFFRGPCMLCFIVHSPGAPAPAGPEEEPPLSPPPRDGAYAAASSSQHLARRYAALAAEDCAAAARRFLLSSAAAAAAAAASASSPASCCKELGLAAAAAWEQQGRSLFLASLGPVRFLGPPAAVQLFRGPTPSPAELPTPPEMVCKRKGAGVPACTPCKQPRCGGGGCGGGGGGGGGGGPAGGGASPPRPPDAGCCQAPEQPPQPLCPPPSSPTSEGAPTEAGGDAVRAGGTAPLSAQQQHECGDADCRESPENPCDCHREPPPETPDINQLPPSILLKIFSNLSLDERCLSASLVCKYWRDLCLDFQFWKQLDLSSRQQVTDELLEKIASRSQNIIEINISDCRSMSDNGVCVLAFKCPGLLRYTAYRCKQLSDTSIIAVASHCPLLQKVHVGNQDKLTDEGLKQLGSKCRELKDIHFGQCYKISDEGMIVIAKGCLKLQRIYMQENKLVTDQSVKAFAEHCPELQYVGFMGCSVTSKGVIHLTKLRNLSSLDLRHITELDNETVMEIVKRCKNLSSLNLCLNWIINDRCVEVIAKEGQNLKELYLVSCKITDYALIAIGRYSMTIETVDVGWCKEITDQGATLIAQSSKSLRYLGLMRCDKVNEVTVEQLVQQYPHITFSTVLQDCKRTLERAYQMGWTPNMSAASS

effect of a mutation on the interaction	Variant
with no effect	MGGIMAPKDIMTNTHAKSILNSMNSLRKSNTLCDVTLRVEQKDFPAHRIALAACSDYFCKMFTSELSEKGKPYVDIQGLTASTMEILLDFVYTETVHVTVENVQELLPAACLLQLKGVKQACCEFLESQLDPSNCLGIRDFAETHNCVDLMQAAEVFSQKHFPEVVQHEEFILLSQGEVEKLIKCDEIQVDSEEPVFEAVINWVKHAKKEREESLPNLLQYVRMPLLTPRYITDVIDAEPFIRCSLQCRDLVDEAKKFHLRPELRSQMQGPRTRARLGANEVLLVVGGFGSQQSPIDVVEKYDPKTQEWSFLPSITRKRRYVASVSLHDRIYVIGGYDGRSRLSSVECLDYTADEDGVWYSVAPMNVRRGLAGATTLGDMIYVSGGFDGSRRHTSMERYDPNIDQWSMLGDMQTAREGAGLVVASGVIYCLGGYDGLNILNSVEKYDPHTGHWTNVTPMATKRSGAGVALLNDHIYVVGGFDGTAHLSSVEAYNIRTDSWTTVTSMTTPRCYVGATVLRGRLYAIAGYDGNSLLSSIECYDPIIDSWEVVTSMGTQRCDAGVCVLREK [V50A;A60K]
disrupting interaction strength	MGGIMAPKDIMTNTHAKSILNSMNSLRKSNTLCDVTLRVEQKDFPAHRIVLAACSDYFCAMFTSELEEKGKPYVDIQGLTASTMEILLDFVYTETVHVTVENVQELLPAACLLQLKGVKQACCEFLESQLDPSNCLGIRDFAETHNCVDLMQAAEVFSQKHFPEVVQHEEFILLSQGEVEKLIKCDEIQVDSEEPVFEAVINWVKHAKKEREESLPNLLQYVRMPLLTPRYITDVIDAEPFIRCSLQCRDLVDEAKKFHLRPELRSQMQGPRTRARLGANEVLLVVGGFGSQQSPIDVVEKYDPKTQEWSFLPSITRKRRYVASVSLHDRIYVIGGYDGRSRLSSVECLDYTADEDGVWYSVAPMNVRRGLAGATTLGDMIYVSGGFDGSRRHTSMERYDPNIDQWSMLGDMQTAREGAGLVVASGVIYCLGGYDGLNILNSVEKYDPHTGHWTNVTPMATKRSGAGVALLNDHIYVVGGFDGTAHLSSVEAYNIRTDSWTTVTSMTTPRCYVGATVLRGRLYAIAGYDGNSLLSSIECYDPIIDSWEVVTSMGTQRCDAGVCVLREK [S67E]
with no effect	MGGIMAPKDIMTNTHAKSILNSMNSLRKSNTLCDVTLRVEQKDFPAHRIVLAACSDYFCAMFTSELAEKGKPYVDIQGLTASTMEILLDFVYTETVHVTVENVQELLPAACLLQLKGVKQACCEFLESQLDPSNCLGIRDFAETHNCVDLMQAAEVFSQKHFPEVVQHEEFILLSQGEVEKLIKCDEIQVDSEEPVFEAVINWVKHAKKEREESLPNLLQYVRMPLLTPRYITDVIDAEPFIRCSLQCRDLVDEAKKFHLRPELRSQMQGPRTRARLGANEVLLVVGGFGSQQSPIDVVEKYDPKTQEWSFLPSITRKRRYVASVSLHDRIYVIGGYDGRSRLSSVECLDYTADEDGVWYSVAPMNVRRGLAGATTLGDMIYVSGGFDGSRRHTSMERYDPNIDQWSMLGDMQTAREGAGLVVASGVIYCLGGYDGLNILNSVEKYDPHTGHWTNVTPMATKRSGAGVALLNDHIYVVGGFDGTAHLSSVEAYNIRTDSWTTVTSMTTPRCYVGATVLRGRLYAIAGYDGNSLLSSIECYDPIIDSWEVVTSMGTQRCDAGVCVLREK [S67A]

Variants of: B2
Conditions: with fxl17_human FBXL17, Q9UF56
Target sequence in this assay (Q9UF56 whole entry): as the sequence (Q9UF56 whole entry) above

Variant	effect of a mutation on the interaction
K40D	increasing interaction strength
L39D	disrupting interaction strength
L39A	decreasing interaction strength
V67A	increasing interaction strength

Other lines, results leading:

effect of a mutation on the interaction	Variant
with no effect	K40A
disrupting interaction strength	V67D
increasing interaction strength	Y43A
disrupting interaction strength	Y43D
